One series deals with Nrd1p-Nab3p. The experiment in a line: Electromobility shift assay of Nrd1p-Nab3p binding to RNA substrates. To be noted: EMSA as for wt RNA; not accurately determined due to poor fit of the curve; estimated by graphical interpolation; read-out: Affinity of Nrd1p-Nab3p for RNA, estimated by graphical interpolation. Also on record: species or system S. cerevisiae. The text has this:
Figure S6: Related to figure 6. A. Coomassie stained SDS-PAGE showing 10 pmol of each protein preparation used (50 pmol of the CID). Asterisks indicate proteolytic fragments of Air2p (deletions at the C-terminal unstructured region) and Nrd1-ΔCIDp (N-terminal truncation) that constitutes approximately 20% of the full-length protein. M: molecular weight marker. B. Analysis of Nrd1p-Nab3p binding to either the wt RNA, containing motifs required for high-affinity RNA-binding (open boxes), or a mutant variant harboring point mutations designed to disrupt all motifs (mutations underlined). The plots correspond to affinity curves generated by the Prism software from values derived from three independent electromobility shift assays (see supplemental experimental procedures). Bars denote standard deviations.
The affinity for the mutant RNA could not be accurately determined due to the poor fit of the curve but it was estimated to be approximately 45 nM by graphical interpolation. C. Polyadenylation assays using the wt and the mutant RNAs as substrates to test whether high-affinity RNA-binding by Nrd1p-Nab3p is required for stimulation of polyadenylation. Panels correspond to different gels.
(1 picture or pasted object on this page, not shown here) […]
for Nrd1 and Nab3) and stored at -80 °C. […]
average of three measurements. The experimental binding isotherms were analyzed by non- […]

In series [1] the target is T1, Nrd1 (rNrd1);Nab3 (rNab3) (Saccharomyces cerevisiae;Saccharomyces …, UniProt P53617;P38996 1-575;1-802, |).
T1 sequence 1: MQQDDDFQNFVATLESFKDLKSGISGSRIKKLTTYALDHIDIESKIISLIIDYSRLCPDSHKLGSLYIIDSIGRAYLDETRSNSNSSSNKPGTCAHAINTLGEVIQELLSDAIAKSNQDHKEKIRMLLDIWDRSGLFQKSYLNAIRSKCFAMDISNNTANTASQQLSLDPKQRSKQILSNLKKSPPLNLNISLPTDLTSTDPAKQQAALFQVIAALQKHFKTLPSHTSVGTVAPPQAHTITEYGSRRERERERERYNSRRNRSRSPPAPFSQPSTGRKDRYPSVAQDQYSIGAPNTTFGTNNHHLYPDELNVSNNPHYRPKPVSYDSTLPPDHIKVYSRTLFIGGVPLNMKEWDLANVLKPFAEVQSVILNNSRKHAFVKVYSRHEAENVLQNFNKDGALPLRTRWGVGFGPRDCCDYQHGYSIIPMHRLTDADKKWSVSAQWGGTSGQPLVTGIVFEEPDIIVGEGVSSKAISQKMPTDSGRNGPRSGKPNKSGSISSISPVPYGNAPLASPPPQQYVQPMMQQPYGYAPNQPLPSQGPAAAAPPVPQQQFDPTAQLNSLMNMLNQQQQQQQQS
T1 sequence 2: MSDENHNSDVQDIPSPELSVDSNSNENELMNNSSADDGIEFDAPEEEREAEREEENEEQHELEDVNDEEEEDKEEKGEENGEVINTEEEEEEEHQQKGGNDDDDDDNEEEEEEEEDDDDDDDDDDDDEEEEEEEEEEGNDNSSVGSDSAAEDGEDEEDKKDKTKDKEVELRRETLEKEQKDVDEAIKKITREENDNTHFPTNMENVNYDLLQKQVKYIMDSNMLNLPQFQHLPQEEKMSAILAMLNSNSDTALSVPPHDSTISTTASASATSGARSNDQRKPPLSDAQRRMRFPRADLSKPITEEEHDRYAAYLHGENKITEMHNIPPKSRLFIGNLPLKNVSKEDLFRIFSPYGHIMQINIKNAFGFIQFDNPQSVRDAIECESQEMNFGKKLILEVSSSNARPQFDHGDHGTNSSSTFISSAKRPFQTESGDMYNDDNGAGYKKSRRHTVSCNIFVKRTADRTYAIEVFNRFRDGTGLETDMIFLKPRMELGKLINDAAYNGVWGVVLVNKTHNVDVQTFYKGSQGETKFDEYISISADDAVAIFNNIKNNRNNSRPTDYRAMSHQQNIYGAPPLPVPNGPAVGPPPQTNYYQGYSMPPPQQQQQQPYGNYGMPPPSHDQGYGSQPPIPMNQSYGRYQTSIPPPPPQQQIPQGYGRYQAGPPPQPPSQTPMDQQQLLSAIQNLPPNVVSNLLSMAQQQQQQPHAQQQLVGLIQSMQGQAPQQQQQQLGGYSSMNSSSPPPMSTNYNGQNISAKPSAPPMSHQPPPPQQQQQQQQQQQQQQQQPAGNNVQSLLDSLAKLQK
The experiment in a line: EMSA; EMSA samples processed as described for the polyadenylation assays; buffer, salt, pH and temperature not in the material; n=3, single-site fit (Prism). To be noted: protein: recombinant;recombinant; tags: ;C-terminal TEV-His6 (from pDL469 primers); copies: 1;1; single strand. (Mobility shift assays separate free from complexed probe on a gel.)

In series [2] the target is T1, Nrd1 (rNrd1);Nab3 (rNab3). Briefly: EMSA; Kd value not in the material (legend line truncated); EMSA samples processed as described for the polyadenylation assays; buffer, salt, pH and temperature not in the material; n=3, single-site fit (Prism). To be noted: protein: recombinant;recombinant; tags: ;C-terminal TEV-His6 (from pDL469 primers); copies: 1;1; single strand.

The next series concerns Trf4p NIM peptide. Briefly: Equilibrium binding of Nrd1p CID mutants to the NIM peptide by fluorescence anisotropy (FA). Details: species or system S. cerevisiae. To be noted: Nrd1p CID variant vs wild-type.

Description for Trf4p NIM peptide: Equilibrium binding experiments with both the protein and peptide mutants (in red and blue, respectively) were monitored by FA (for the binding isotherms, see Figure S5).
The importance of these contacts was further tested in a quantitative in vitro binding assay using FA.

Turning to “mutant RNA: mutant RNA with point mutations disrupting all motifs: GAAACGCAAUGAAUUAAGACUCGAUACAUUGCAAUUAGCU (RNA, backbone not given here)”, the Kd in the series on Nrd1p-Nab3p is about 45 nM.

GAAACGUAAUGAAUUAAGUCUUGAUAUAUAACAAUUAGCU (ssRNA) [Wt RNA (DL2974)]: the Kd in series [1] was 2.4 ± 0.3 nM.

In the case of GAAACGCAAUGAAUUAAGACUCGAUACAUUGCAAUUAGCU (ssRNA) [Mutant RNA (DL2975)], the “fold loss of affinity vs wt RNA” value in series [2] was ~20 fold lower affinity than wt RNA.

B1: I130K (protein)
chain: MQQDDDFQNFVATLESFKDLKSGISGSRIKKLTTYALDHIDIESKIISLIIDYSRLCPDSHKLGSLYIIDSIGRAYLDETRSNSNSSSNKPGTCAHAINTLGEVIQELLSDAIAKSNQDHKEKIRMLLDKWDRSGLFQKSYLNAIRSKCFAMD
Turning to B1, the “Decrease in binding affinity for NIM relative to wild-type CID (fold)” value with Trf4p NIM peptide stood at 20 fold.

Source of the values: article PMC4186968, “Molecular Basis for Coordinating Transcription Termination with Noncoding RNA Degradation” (Molecular Cell, 2014).
